Source: the supplement of paper PMC7125110
± gives the standard error. For some assays here: Variants at the floor of the assay were thinned out.

B1: glmS ribozyme (parent)
chain: AUAAAAGCGCCAGAACUACAGAAAUGUAGUUGACGAGGAGGAGGUUUAUCGAAUUUUCGGCGGAUGCCUCCAAA

How the values were obtained:
Conditions in all cases: with glucosamine-6-phosphate
[1] = variants of: B1; assay: kcat; higher = faster cleavage; RNA array
In short: (§1)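 kcat and KM were obtained from weighted Michaelis–Menten fits across concentrations of kobs values. Those came from one- or two-exponential decay fits to per-tile medians normalised to baseline and to non-cleaving reference variants. The variants were barcoded ribozymes transcribed in situ by E. coli RNA polymerase on sequenced MiSeq chips and tracked through a hybridised Cy3 probe at 37 °C, with 40 μM to 10 mM glucosamine-6-phosphate in HEPES/KCl/Mg(OAc)2 buffer flowed in.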

[2] = variants of: B1; assay: KM; higher = weaker cofactor use; RNA array
In short: as §1

[3] = variants of: B1; assay: self-cleavage kobs at 40 uM GlcN6P; higher = faster cleavage; RNA array
In short: as §1

[4] = variants of: B1; assay: self-cleavage kobs at 160 uM GlcN6P; higher = faster cleavage; RNA array
In short: as §1

[5] = variants of: B1; assay: self-cleavage kobs at 640 uM GlcN6P; higher = faster cleavage; RNA array
In short: as §1

[6] = variants of: B1; assay: self-cleavage kobs at 2500 uM GlcN6P; higher = faster cleavage; RNA array
In short: as §1

[7] = variants of: B1; assay: self-cleavage kobs at 10000 uM GlcN6P; higher = faster cleavage; RNA array
In short: as §1

Variant	kcat [1] [s⁻¹]	KM [2] [µM]	self-cleavage kobs at 40 uM GlcN6P [3] [s⁻¹]	self-cleavage kobs at 160 uM GlcN6P [4] [s⁻¹]	self-cleavage kobs at 640 uM GlcN6P [5] [s⁻¹]	self-cleavage kobs at 2500 uM GlcN6P [6] [s⁻¹]	self-cleavage kobs at 10000 uM GlcN6P [7] [s⁻¹]
AUAAAAGCGCCUGAACUACAGAAAUGUAGUUGACGUGGAGGAGGUUUAUCGAAUUUUCGGCGGAUGCCUCCAAA [A12U A36U]	2.03e-05 ± 6.7e-07	2080 ± 230	–	–	–	–	–
AUAAAAGCGCCAGAACUACAGAAAUGUAGUUGACGAGGAGGAGGUUUAUUGGAUUUUCGGCGGAUGCCUCCAAA [C50U A52G]	1.11e-05 ± 2.8e-06	–	–	–	–	–	–
AUAAAAGCGCCUAAACUACAGAAAUGUAGUUGACGAGGAGGAGGUUUAUGGAAUUUUCGGCGGAUGUCUCCAAA [A12U G13A C50G C67U]	0.000171 ± 2.5e-05	–	0.000107 ± 2.3e-05	0.000201 ± 5.7e-05	0.000169 ± 4.2e-05	0.000208 ± 3.6e-05	0.000124 ± 3.4e-05
AUAAAAGGGCCAGAACUACAGAAAUGUAGUUGACGAUGAGGAGGUUUAUCGAAUUUUCGGCGGAUGCCUCCAAA [C8G G37U]	< 1e-05	–	–	< 1e-05	–	–	–
AUAAAAGCGCCAGAACUACAGAAAUGUAGUUGACGAGGAGCAGGUUUAUCGAUUUUUCGGCGGAUGCCUCCAAA [G41C A53U]	0.000241 ± 3.2e-05	1290 ± 380	–	–	7.44e-05 ± 1.2e-05	0.000197 ± 3.2e-05	0.000201 ± 2.9e-05
AUAAAAGCGCCAGAACUACAGAAAUGUAGUUGACGAGGAGGACGUUUAUCGAGUUUUCGGCGGAUGCUUCCAAA [G43C A53G C68U]	0.00152 ± 0.00074	–	5.01e-05 ± 1.4e-05	0.000102 ± 2.7e-05	0.000435 ± 0.00011	0.000879 ± 0.00022	–
AUAAAAGCGCCAGACCUACAGAAAUGUAGUUGACGAGGAGCAGGUUUAUCGAAUUUUCGGCGGAUGCCUCCAAA [A15C G41C]	3.33e-05 ± 2.9e-06	1850 ± 570	–	–	–	–	2.79e-05 ± 1.2e-05
AUAAAUGCGCCAUAACUACAGAAAUGUAGUUGACGAGGAGGAGGUUUAUCGAAUUUUCGGCGGAUGCCUCCAAA [A6U G13U]	< 1e-05	–	< 1e-05	–	< 1e-05	–	–
AUAAAAGCGCCAGAACUACAGAAAUGUAGUUGACGAGGAGGAGGUUUAGCGAAUUUUCGGCGGAUGCCUUCAAA [U49G C70U]	0.001 ± 4.7e-05	1860 ± 160	2.78e-05 ± 1.2e-05	7.37e-05 ± 1.3e-05	0.000263 ± 3e-05	0.00059 ± 7.5e-05	0.000837 ± 7.5e-05
AUAAAAGCGCCAGAACUACAGAAAUGUAGUUGACGAGGAGGAGGUUUAUGGAAUUUUAGGCCCAUGCCUACAAA [C50G C58A G62C G63C C70A]	0.000121 ± 3.1e-05	–	4.49e-05 ± 1.7e-05	0.000204 ± 4.8e-05	0.000166 ± 4.1e-05	0.000239 ± 5.5e-05	9.95e-05 ± 1.6e-05
AUAAAAGCGCCAGGACUACAGAAAUGUAGUUGACGAGGAGGAGGUUUAUCGAAUUUGCGGCGGAUGCCUCCAAA [A14G U57G]	0.000171 ± 2.6e-06	2380 ± 88	–	–	3.71e-05 ± 8e-06	8.67e-05 ± 9.4e-06	0.000139 ± 1.3e-05
AUAAAAGCGCCAGAACUACAGAAAUGUAGAUGACGAGGAGGAGGUUUAUCGAAUUUUCGGCGGAUGCCUACAAA [U30A C70A]	6.65e-05 ± 2.4e-05	–	–	–	–	7.75e-05 ± 1.6e-05	5.12e-05 ± 1.3e-05
AUAAAAGCGCCUGAACUACAGAAAUGUAAUUGACGAGGAGGAGGUUUAUCGUAUUUUCGGCGGAUGCCUCCAAA [A12U G29A A52U]	0.000494 ± 0.00016	–	–	–	4.42e-05 ± 1.6e-05	0.00021 ± 6.6e-05	0.000309 ± 7.1e-05
AUAAAAGCGCCAGAACUACAGAAAUGUAGUUGACGAGGAGGAGGUUGAUCGAAUUUUCGGCGGAGGCCUCCAAA [U47G U65G]	0.00249 ± 0.00033	2760 ± 530	3.08e-05 ± 1.1e-05	0.000153 ± 2e-05	0.000451 ± 7e-05	0.00107 ± 0.00015	0.0021 ± 0.00028
AUAAAAGCGCCAGAACUACAGAAAUGUAGUUGACGAGGAGGAGGUUUAUCGAAUUUUGGGCGGAUGCCUCGAAA [C58G C71G]	2.97e-05 ± 5.4e-06	–	–	–	3.12e-05 ± 1.3e-05	3.56e-05 ± 1.5e-05	–
AUAAAAGCGCCAGAACUACAGAAAUGUAGUUGACGAGGAGGAAGUUUAUCGAAUUUUCGGCGGAUGUCUCCAAA [G43A C67U]	0.000171 ± 1.4e-05	1110 ± 320	–	–	6.14e-05 ± 9.1e-06	0.000189 ± 4.2e-05	0.000152 ± 9.9e-06
AUAAAAGCGCCAGACCUACAGAAAUGUAGUUGACGAGGAGGAGGUUUAUCGAAUUUUCGGCGGAUGCCUCUAAA [A15C C71U]	0.00455 ± 0.0014	1580 ± 690	0.000165 ± 1.6e-05	0.000358 ± 4.6e-05	0.00111 ± 0.00013	0.00266 ± 0.00039	0.00453 ± 0.00056
